2 substances from PMC5564220 can be followed below.

For assay [1], the target named is Rvb1/his-Rvb2 complex (S. cerevisiae) (UniProt Q03940). In words: native MS.
Assay [2] concerns the target Rvb1ΔDII/Rvb2ΔDII complex (S. cerevisiae) (UniProt Q03940). In words: native MS.

Sequence of Rvb1ΔDII/Rvb2ΔDII complex (Q03940 whole entry, stated change not applied): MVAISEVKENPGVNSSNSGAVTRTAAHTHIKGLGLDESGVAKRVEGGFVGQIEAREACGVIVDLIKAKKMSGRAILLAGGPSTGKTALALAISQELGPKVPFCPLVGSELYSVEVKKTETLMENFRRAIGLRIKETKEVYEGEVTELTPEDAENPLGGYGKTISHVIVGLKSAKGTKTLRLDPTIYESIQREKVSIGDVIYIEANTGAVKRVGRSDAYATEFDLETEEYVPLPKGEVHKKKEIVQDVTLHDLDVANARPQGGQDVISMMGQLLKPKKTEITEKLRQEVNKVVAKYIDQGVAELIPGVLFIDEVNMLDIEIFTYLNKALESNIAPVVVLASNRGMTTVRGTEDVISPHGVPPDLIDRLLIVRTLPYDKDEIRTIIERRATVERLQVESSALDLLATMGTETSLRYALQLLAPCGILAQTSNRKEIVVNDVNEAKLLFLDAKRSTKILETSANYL
Sequence of Rvb1ΔDII/Rvb2ΔDII complex (Q12464 whole entry, stated change not applied): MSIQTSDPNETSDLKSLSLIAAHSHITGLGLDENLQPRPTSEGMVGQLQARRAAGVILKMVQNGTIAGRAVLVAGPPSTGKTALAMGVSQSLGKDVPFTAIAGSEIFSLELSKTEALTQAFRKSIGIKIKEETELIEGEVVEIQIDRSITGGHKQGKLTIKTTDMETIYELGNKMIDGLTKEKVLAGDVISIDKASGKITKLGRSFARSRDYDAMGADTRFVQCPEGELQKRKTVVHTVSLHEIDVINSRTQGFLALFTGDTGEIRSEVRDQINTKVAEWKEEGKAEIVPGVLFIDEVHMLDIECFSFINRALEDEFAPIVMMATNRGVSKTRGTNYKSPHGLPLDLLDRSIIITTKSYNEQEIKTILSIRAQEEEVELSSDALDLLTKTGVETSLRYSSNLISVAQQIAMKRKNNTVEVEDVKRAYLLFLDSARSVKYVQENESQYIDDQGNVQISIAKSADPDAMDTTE

In the case of “Rvb1/his-Rvb2 complex (from UniProt Q03940 1-463; Q12464 1-471)”, in assay [1], the percent of hexamers in the population was 0% and the percent of the dodecamer dissociated into hexamers came out at 14%.

Take “Rvb1ΔDII/Rvb2ΔDII complex (from UniProt Q03940 1-463; Q12464 1-471)”: the percent of dodecamer in the population in assay [2] came to 3%.
